B1: Plasmodesmata-located protein 5 (PDLP5), EGFP or mCherry fusion [Arabidopsis thaliana] / itself (parent)
chain: SPTDNYIYAVCSPAKFSPSSGYETNLNSLLSSFVTSTAQTRYANFTVPTGKPEPTVTVYGIYQCRGDLDPTACSTCVSSAVAQVGALCSNSYSGFLQMENCLIRYDNKSFLGVQDKTLILNKCGQPMEFNDQDALTKASDVIGSLGTGDGSYRTGGNGNVQGVAQCSGDLSTSQCQDCLSDAIGRLKSDCGMAQGGYVYLSKCYARFSVGGSHARQTPGPNFGHEGEKGNKDDNGVGKTLAIIIGIVTLIILLVVFLAFVGKCCRKLQDEKWCK
B2: Plasmodesmata-located protein 5 (PDLP5), EGFP or mCherry fusion [Arabidopsis thaliana] / Plasmodesmata-located protein 5 (PDLP5), EGFP or mCherry fusion [Arabidopsis thaliana] (parent)
chain 1: B1 chain
chain 2: B1 chain

Variants of: B1
Assay: FRET
Settings: with itself; at plasmodesmata; EGFP-fused donor and mCherry-fused acceptor; n=12; parent: 20; read off a plot

Variant	response (% FRET efficiency)
SPTDNYIYAVCSPAKFSPSSGYETNLNSLLSSFVTSTAQTRYANFTVPTGKPEPTVTVYGIYQCRGDLDPTACSTCVSSAVAQVGALCSNSYSGFLQMENCLIRYDNKSFLGVQDKTLILNKCGQPMEFNDQDALTKASDVIGSLGTGDGSYRTGGNGNVQGVAQCSGDLSTSQCQDCLSDAIGRLKSDCGMAQGGYVYLSKCYARFSVGGSHARQTPGPNFGHEGEKGNKDDNGVGKTLVIIIVIVTLIILLVVFLAFVGKCCRKLQDEKWCK [chain 1 A241V G245V]	17

Variants of: B2
Assay: FRET
Settings: with Plasmodesmata-located protein 5 (PDLP5), at plasmodesmata, PDLP5-EGFP donor and PDLP5VV-mCherry acceptor, n=21, parent: 20, read off a plot

Variant	response (% FRET efficiency)
chain 1 SPTDNYIYAVCSPAKFSPSSGYETNLNSLLSSFVTSTAQTRYANFTVPTGKPEPTVTVYGIYQCRGDLDPTACSTCVSSAVAQVGALCSNSYSGFLQMENCLIRYDNKSFLGVQDKTLILNKCGQPMEFNDQDALTKASDVIGSLGTGDGSYRTGGNGNVQGVAQCSGDLSTSQCQDCLSDAIGRLKSDCGMAQGGYVYLSKCYARFSVGGSHARQTPGPNFGHEGEKGNKDDNGVGKTLVIIIVIVTLIILLVVFLAFVGKCCRKLQDEKWCK [chain 1 A241V G245V]	16

Same assay, conditions: with Plasmodesmata-located protein 5 (PDLP5), at plasmodesmata, PDLP5VV-EGFP donor and PDLP5-mCherry acceptor, n=15, parent: 20, read off a plot

Variant	response (% FRET efficiency)
chain 1 SPTDNYIYAVCSPAKFSPSSGYETNLNSLLSSFVTSTAQTRYANFTVPTGKPEPTVTVYGIYQCRGDLDPTACSTCVSSAVAQVGALCSNSYSGFLQMENCLIRYDNKSFLGVQDKTLILNKCGQPMEFNDQDALTKASDVIGSLGTGDGSYRTGGNGNVQGVAQCSGDLSTSQCQDCLSDAIGRLKSDCGMAQGGYVYLSKCYARFSVGGSHARQTPGPNFGHEGEKGNKDDNGVGKTLVIIIVIVTLIILLVVFLAFVGKCCRKLQDEKWCK [chain 1 A241V G245V]	19
